From patent publication US20190002563A1 (MacroGenics, published 2019)

Tests used:
[1] = target: T1, human B7-H3 on cells (human, UniProt Q5ZPR3 29-534); test: cell-based or functional assay
T1 sequence (looked up): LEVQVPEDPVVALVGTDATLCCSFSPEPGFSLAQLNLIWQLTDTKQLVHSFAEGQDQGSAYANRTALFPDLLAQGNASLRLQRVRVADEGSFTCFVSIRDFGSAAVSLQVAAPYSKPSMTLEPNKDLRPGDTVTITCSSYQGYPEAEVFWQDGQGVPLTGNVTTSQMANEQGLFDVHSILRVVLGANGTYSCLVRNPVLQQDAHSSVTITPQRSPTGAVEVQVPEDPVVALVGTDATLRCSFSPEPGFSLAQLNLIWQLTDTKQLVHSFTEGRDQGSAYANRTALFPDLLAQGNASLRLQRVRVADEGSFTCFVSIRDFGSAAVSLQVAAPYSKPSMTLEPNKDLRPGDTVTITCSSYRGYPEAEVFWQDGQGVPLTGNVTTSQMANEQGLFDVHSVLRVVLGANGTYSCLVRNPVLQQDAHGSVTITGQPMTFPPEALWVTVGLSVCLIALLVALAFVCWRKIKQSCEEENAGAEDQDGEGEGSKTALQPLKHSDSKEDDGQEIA

[2] = target: T1, human B7-H3 on cells; test: cell-based or functional assay; remark: listed apart in the source
[3] = target: T2, Cynomolgus B7-H3 (cynomolgus monkey); test: SPR (BIAcore)
T2 chain: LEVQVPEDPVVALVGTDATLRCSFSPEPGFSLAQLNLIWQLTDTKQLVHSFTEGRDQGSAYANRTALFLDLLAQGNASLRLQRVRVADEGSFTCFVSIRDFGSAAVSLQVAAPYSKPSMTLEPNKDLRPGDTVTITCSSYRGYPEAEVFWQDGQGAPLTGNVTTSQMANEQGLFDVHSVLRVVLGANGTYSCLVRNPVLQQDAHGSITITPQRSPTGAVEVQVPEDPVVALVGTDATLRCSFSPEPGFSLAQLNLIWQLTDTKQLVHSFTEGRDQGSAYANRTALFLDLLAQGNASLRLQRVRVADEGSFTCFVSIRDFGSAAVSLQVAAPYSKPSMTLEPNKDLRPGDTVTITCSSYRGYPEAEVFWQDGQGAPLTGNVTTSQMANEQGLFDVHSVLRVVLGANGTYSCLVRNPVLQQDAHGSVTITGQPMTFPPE

[4] = target: T1, human B7-H3 on cells; test: cell-based or functional assay; remark: listed apart in the source

Binder	potency of redirected cell killing against DART-A (target cell lines including A498, THP-1 and DU145) [1]	EC50 of redirected killing, 22Rv1 target cells, human T cells, E:T 5:1 [2]	EC50 of redirected killing, A375 target cells, human T cells, E:T 5:1 [2]	EC50 of redirected killing, A498 target cells, human T cells, E:T 5:1 [2]	EC50 of redirected killing, BxPC-3 target cells, human T cells, E:T 5:1 [2]	EC50 of redirected killing, DU145 target cells, human T cells, E:T 5:1 [2]	EC50 of redirected killing, Detroit562 target cells, human T cells, E:T 5:1 [2]	EC50 of redirected killing, JIMT-1/Luc target cells, human T cells, E:T 5:1 [2]	EC50 of redirected killing, SKMES-1 target cells, human T cells, E:T 5:1 [2]	EC50 of redirected killing, U87 target cells, human T cells, E:T 5:1 [2]	Kd [3]	koff [3]	kon [3]	EC50 of redirected killing, A375 target cells, E:T 1:1 (LDH assay) [4]	EC50 of redirected killing, A375 target cells, E:T 5:1 (LDH assay) [4]	EC50 of redirected killing, A375 target cells, E:T 10:1 (LDH assay) [4]	EC50 of redirected killing, A498 target cells, E:T 1:1 (LDH assay) [4]	EC50 of redirected killing, A498 target cells, E:T 5:1 (LDH assay) [4]	EC50 of redirected killing, A498 target cells, E:T 10:1 (LDH assay) [4]
DART-B (bispecific antibody, Three-chain Fc diabody; also called B7-H3×CD3 bispecific monovalent Fc diabody) chain 1: DIQMTQSPSSLSASVGDRVTITCRASQDISNYLNWYQQKPGKAPKLLIYYTSRLHSGVPSRFSGSGSGTDFTLTISSLQPEDIATYYCQQGNTLPPTFGGGTKLEIKGGGSGGGGEVQLVESGGGLVQPGGSLRLSCAASGFTFSTYAMNWVRQAPGKGLEWVGRIRSKYNNYATYYADSVKDRFTISRDDSKNSLYLQMNSLKTEDTAVYYCVRHGNFGNSYVSWFAYWGQGTLVTVSSGGCGGGEVAALEKEVAALEKEVAALEKEVAALEKGGGDKTHTCPPCPAPEAAGGPSVFLFPPKPKDTLMISRTPEVTCVVVDVSHEDPEVKFNWYVDGVEVHNAKTKPREEQYNSTYRVVSVLTVLHQDWLNGKEYKCKVSNKALPAPIEKTISKAKGQPREPQVYTLPPSREEMTKNQVSLWCLVKGFYPSDIAVEWESNGQPENNYKTTPPVLDSDGSFFLYSKLTVDKSRWQQGNVFSCSVMHEALHNHYTQKSLSLSPGK chain 2: QAVVTQEPSLTVSPGGTVTLTCRSSTGAVTTSNYANWVQQKPGQAPRGLIGGTNKRAPWTPARFSGSLLGGKAALTITGAQAEDEADYYCALWYSNLWVFGGGTKLTVLGGGGSGGGGQVQLVQSGAEVKKPGASVKVSCKASGYTFTSYWMQWVRQAPGQGLEWMGTIYPGDGDTRYTQKFKGRVTITADKSTSTAYMELSSLRSEDTAVYYCARRGIPRLWYFDVWGQGTTVTVSSGGCGGGKVAALKEKVAALKEKVAALKEKVAALKE chain 3: not shown	~6 fold	–	–	–	–	–	–	–	–	–	–	–	–	–	–	–	–	–	–
DART-A (bispecific antibody, Three-chain Fc diabody, one B7-H3 site and one CD3 site; chains are disulfide bonded; also called B7-H3×CD3 bispecific monovalent Fc diabody) chain 1: DIQLTQSPSFLSASVGDRVTITCKASQNVDTNVAWYQQKPGKAPKALIYSASYRYSGVPSRFSGSGSGTDFTLTISSLQPEDFATYYCQQYNNYPFTFGQGTKLEIKGGGSGGGGEVQLVESGGGLVQPGGSLRLSCAASGFTFSTYAMNWVRQAPGKGLEWVGRIRSKYNNYATYYADSVKDRFTISRDDSKNSLYLQMNSLKTEDTAVYYCVRHGNFGNSYVSWFAYWGQGTLVTVSSGGCGGGEVAALEKEVAALEKEVAALEKEVAALEKGGGDKTHTCPPCPAPEAAGGPSVFLFPPKPKDTLMISRTPEVTCVVVDVSHEDPEVKFNWYVDGVEVHNAKTKPREEQYNSTYRVVSVLTVLHQDWLNGKEYKCKVSNKALPAPIEKTISKAKGQPREPQVYTLPPSREEMTKNQVSLWCLVKGFYPSDIAVEWESNGQPENNYKTTPPVLDSDGSFFLYSKLTVDKSRWQQGNVFSCSVMHEALHNHYTQKSLSLSPGK chain 2: QAVVTQEPSLTVSPGGTVTLTCRSSTGAVTTSNYANWVQQKPGQAPRGLIGGTNKRAPWTPARFSGSLLGGKAALTITGAQAEDEADYYCALWYSNLWVFGGGTKLTVLGGGGSGGGGEVQLVESGGGLVQPGGSLRLSCAASGFTFSSFGMHWVRQAPGKGLEWVAYISSDSSAIYYADTVKGRFTISRDNAKNSLYLQMNSLRDEDTAVYYCGRGRENIYYGSRLDYWGQGTTVTVSSGGCGGGKVAALKEKVAALKEKVAALKEKVAALKE chain 3: not shown	–	0.212 µg/mL	0.097 µg/mL	0.064 µg/mL	0.196 µg/mL	0.084 µg/mL	1.28 µg/mL	0.047 µg/mL	0.319 µg/mL	0.099 µg/mL	30.2 nM	0.0051 s⁻¹	170000 M⁻¹ s⁻¹	0.352 µg/mL	0.243 µg/mL	0.166 µg/mL	0.129 µg/mL	0.0425 µg/mL	0.0272 µg/mL
